Assay results from patent US20150344570A1 (published 2015).

B1: GpH7-A5/GpH7-B3 variant I336_08L/GpL16-k0 (antibody, human IgG1, kappa)
heavy 1: not shown
heavy 2: not shown
light: DIVMTQSPLSLPVTPGEPASISCQASESLVHSNRNTYLHWYLQKPGQSPQLLIYKVSNRFSGVPDRFSGSGSGTDFTLKISRVEAEDVGVYYCSQNTHVPPTFGQGTKVEIERTVAAPSVFIFPPSDEQLKSGTASVVCLLNNFYPREAKVQWKVDNALQSGNSQESVTEQDSKDSTYSLSSTLTLSKADYEKHKVYACEVTHQGLSSPVTKSFNRGEC
notes: also called He Ab I336_08L
B2: GpH7-A5/GpH7-B3 variant T335_07I/GpL16-k0 (antibody, human IgG1, kappa)
heavy 1: not shown
heavy 2: not shown
light: B1 light
notes: also called He Ab T335_07I
B3: GpH7-A5/GpH7-B3 variant K334_16H/GpL16-k0 (antibody, human IgG1, kappa)
heavy 1: not shown
heavy 2: not shown
light: B1 light
notes: also called He Ab K334_16H
B4: GpH7-A5/GpH7-B3 variant L235_04F/GpL16-k0 (antibody, human IgG1, kappa)
heavy 1: not shown
heavy 2: not shown
light: B1 light
notes: also called He Ab L235_04F
B5: GpH7-A5/GpH7-B3 variant S324_02A/GpL16-k0 (antibody, human IgG1, kappa)
heavy 1: not shown
heavy 2: not shown
light: B1 light
notes: also called He Ab S324_02A
B6: GpH7-A5/GpH7-B3 variant T335_16H/GpL16-k0 (antibody, human IgG1, kappa)
heavy 1: not shown
heavy 2: not shown
light: B1 light
notes: also called He Ab T335_16H
B7: GpH7-A5/GpH7-B3 variant L328_14T/GpL16-k0 (antibody, human IgG1, kappa)
heavy 1: not shown
heavy 2: not shown
light: B1 light
notes: also called He Ab L328_14T
B8: GpH7-A5/GpH7-B3 variant S267_02A/GpL16-k0 (antibody, human IgG1, kappa)
heavy 1: not shown
heavy 2: not shown
light: B1 light
notes: also called He Ab S267_02A
B9: GpH7-A5/GpH7-B3 variant T335_19Q/GpL16-k0 (antibody, human IgG1, kappa)
heavy 1: not shown
heavy 2: not shown
light: B1 light
notes: also called He Ab T335_19Q
B10: GpH7-A5/GpH7-B3 variant L235_15Y/GpL16-k0 (antibody, human IgG1, kappa)
heavy 1: not shown
heavy 2: not shown
light: B1 light
notes: also called He Ab L235_15Y
B11: GpH7-A5/GpH7-B3 variant S337_10E/GpL16-k0 (antibody, human IgG1, kappa)
heavy 1: not shown
heavy 2: not shown
light: B1 light
notes: also called He Ab S337_10E
B12: GpH7-A5/GpH7-B3 variant K334_08L/GpL16-k0 (antibody, human IgG1, kappa)
heavy 1: not shown
heavy 2: not shown
light: B1 light
notes: also called He Ab K334_08L
B13: GpH7-A5/GpH7-B3 variant T335_01G/GpL16-k0 (antibody, human IgG1, kappa)
heavy 1: not shown
heavy 2: not shown
light: B1 light
notes: also called He Ab T335_01G
B14: GpH7-A5/GpH7-B3 variant K326_10E/GpL16-k0 (antibody, human IgG1, kappa)
heavy 1: not shown
heavy 2: not shown
light: B1 light
notes: also called He Ab K326_10E
B15: GpH7-A5/GpH7-B3 variant L235_20W/GpL16-k0 (antibody, human IgG1, kappa)
heavy 1: not shown
heavy 2: not shown
light: B1 light
notes: also called He Ab L235_20W
B16: GpH7-A5/GpH7-B3 variant L328_06M/GpL16-k0 (antibody, human IgG1, kappa)
heavy 1: not shown
heavy 2: not shown
light: B1 light
notes: also called He Ab L328_06M
B17: GpH7-A5/GpH7-B3 variant K326_19Q/GpL16-k0 (antibody, human IgG1, kappa)
heavy 1: not shown
heavy 2: not shown
light: B1 light
notes: also called He Ab K326_19Q
B18: GpH7-A5/GpH7-B3 variant L328_20W/GpL16-k0 (antibody, human IgG1, kappa)
heavy 1: not shown
heavy 2: not shown
light: B1 light
notes: also called He Ab L328_20W
B19: GpH7-A5/GpH7-B3 variant V266_07I/GpL16-k0 (antibody, human IgG1, kappa)
heavy 1: not shown
heavy 2: not shown
light: B1 light
notes: also called He Ab V266_07I
B20: GpH7-A5/GpH7-B3 variant T335_13S/GpL16-k0 (antibody, human IgG1, kappa)
heavy 1: not shown
heavy 2: not shown
light: B1 light
notes: also called He Ab T335_13S
B21: GpH7-A5/GpH7-B3 variant T335_10E/GpL16-k0 (antibody, human IgG1, kappa)
heavy 1: not shown
heavy 2: not shown
light: B1 light
notes: also called He Ab T335_10E
B22: GpH7-A5/GpH7-B3 variant T335_15Y/GpL16-k0 (antibody, human IgG1, kappa)
heavy 1: not shown
heavy 2: not shown
light: B1 light
notes: also called He Ab T335_15Y
B23: GpH7-A5/GpH7-B3 variant S337_09D/GpL16-k0 (antibody, human IgG1, kappa)
heavy 1: not shown
heavy 2: not shown
light: B1 light
notes: also called He Ab S337_09D
B24: GpH7-A5/GpH7-B3 variant K326_06M/GpL16-k0 (antibody, human IgG1, kappa)
heavy 1: not shown
heavy 2: not shown
light: B1 light
notes: also called He Ab K326_06M
B25: GpH7-A5/GpH7-B3 variant Y296_18N/GpL16-k0 (antibody, human IgG1, kappa)
heavy 1: not shown
heavy 2: not shown
light: B1 light
notes: also called He Ab Y296_18N
B26: GpH7-A5/GpH7-B3 variant K334_04F/GpL16-k0 (antibody, human IgG1, kappa)
heavy 1: not shown
heavy 2: not shown
light: B1 light
notes: also called He Ab K334_04F
B27: GpH7-A5/GpH7-B3 variant S239_09D/GpL16-k0 (antibody, human IgG1, kappa)
heavy 1: not shown
heavy 2: not shown
light: B1 light
notes: also called He Ab S239_09D
B28: GpH7-A5/GpH7-B3 variant Y300_01G/GpL16-k0 (antibody, human IgG1, kappa)
heavy 1: not shown
heavy 2: not shown
light: B1 light
notes: He Ab: mutation in one H chain only; also called He Ab
B29: GpH7-A5/GpH7-B3 variant A327_06M/GpL16-k0 (antibody, human IgG1, kappa)
heavy 1: not shown
heavy 2: not shown
light: B1 light
notes: as for B28
B30: GpH7-A5/GpH7-B3 variant A327_08L/GpL16-k0 (antibody, human IgG1, kappa)
heavy 1: not shown
heavy 2: not shown
light: B1 light
notes: as for B28
B31: GpH7-A5/GpH7-B3 variant I336_16H/GpL16-k0 (antibody, human IgG1, kappa)
heavy 1: not shown
heavy 2: not shown
light: B1 light
notes: as for B28
B32: GpH7-A5/GpH7-B3 variant I336_10E/GpL16-k0 (antibody, human IgG1, kappa)
heavy 1: not shown
heavy 2: not shown
light: B1 light
notes: as for B28
B33: GpH7-A5/GpH7-B3 variant A327_05P/GpL16-k0 (antibody, human IgG1, kappa)
heavy 1: not shown
heavy 2: not shown
light: B1 light
notes: as for B28
B34: GpH7-A5/GpH7-B3 variant I336_09D/GpL16-k0 (antibody, human IgG1, kappa)
heavy 1: not shown
heavy 2: not shown
light: B1 light
notes: as for B28
B35: GpH7-A5/GpH7-B3 variant I336_04F/GpL16-k0 (antibody, human IgG1, kappa)
heavy 1: not shown
heavy 2: not shown
light: B1 light
notes: as for B28
B36: GpH7-A5/GpH7-B3 variant I336_14T/GpL16-k0 (antibody, human IgG1, kappa)
heavy 1: not shown
heavy 2: not shown
light: B1 light
notes: as for B28
B37: GpH7-A5/GpH7-B3 variant A327_13S/GpL16-k0 (antibody, human IgG1, kappa)
heavy 1: not shown
heavy 2: not shown
light: B1 light
notes: as for B28
B38: GpH7-A5/GpH7-B3 variant A327_15Y/GpL16-k0 (antibody, human IgG1, kappa)
heavy 1: not shown
heavy 2: not shown
light: B1 light
notes: as for B28
B39: GpH7-A5/GpH7-B3 variant I336_13S/GpL16-k0 (antibody, human IgG1, kappa)
heavy 1: not shown
heavy 2: not shown
light: B1 light
notes: as for B28
B40: GpH7-A5/GpH7-B3 variant I336_11K/GpL16-k0 (antibody, human IgG1, kappa)
heavy 1: not shown
heavy 2: not shown
light: B1 light
notes: as for B28
B41: GpH7-A5/GpH7-B3 variant I336_15Y/GpL16-k0 (antibody, human IgG1, kappa)
heavy 1: not shown
heavy 2: not shown
light: B1 light
notes: as for B28
B42: GpH7-A5/GpH7-B3 variant A327_04F/GpL16-k0 (antibody, human IgG1, kappa)
heavy 1: not shown
heavy 2: not shown
light: B1 light
notes: as for B28
B43: GpH7-A5/GpH7-B3 variant A327_11K/GpL16-k0 (antibody, human IgG1, kappa)
heavy 1: not shown
heavy 2: not shown
light: B1 light
notes: as for B28
B44: GpH7-A5/GpH7-B3 variant I336_12R/GpL16-k0 (antibody, human IgG1, kappa)
heavy 1: not shown
heavy 2: not shown
light: B1 light
notes: as for B28

What follows are binders tested against FcγRIIa H (human, UniProt P12318 34-217) (assay: SPR Biacore, captured antibody, FcγR analyte; vs GpH7-A5/GpH7-B3/GpL16-k0 = 100).
Chain of FcγRIIa H (P12318 34-217): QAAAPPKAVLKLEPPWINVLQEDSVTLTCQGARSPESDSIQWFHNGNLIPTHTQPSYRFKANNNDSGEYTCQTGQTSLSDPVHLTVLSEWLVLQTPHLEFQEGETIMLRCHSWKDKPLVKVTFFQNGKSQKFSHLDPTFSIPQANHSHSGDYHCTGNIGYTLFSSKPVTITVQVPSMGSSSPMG

Binder | He/Con_2aH
B1 | 106 % of control
B2 | 108 % of control
B3 | 104 % of control
B4 | 111 % of control
B5 | 102 % of control
B6 | 105 % of control
B7 | 116 % of control
B8 | 120 % of control
B9 | 103 % of control
B10 | 122 % of control
B11 | 102 % of control
B12 | 104 % of control
B13 | 103 % of control
B14 | 102 % of control
B15 | 118 % of control
B16 | 104 % of control
B17 | 101 % of control
B18 | 113 % of control
B19 | 106 % of control
B20 | 106 % of control
B21 | 108 % of control
B22 | 106 % of control
B23 | 107 % of control
B24 | 103 % of control
B25 | 104 % of control
B26 | 106 % of control
B27 | 114 % of control

What follows are binders tested against T1, FcγRIa (human, UniProt P12314 16-292) (assay: SPR (Biacore), captured antibody, FcγR as analyte, relative binding).
T1 construct: extracellular domain; Soluble extracellular domain with C-terminal His tag, used as analyte; also called FcgRI; CD64; not shown: His tag at the C terminus
Procedure: (§1) The heterodimerized antibodies He Abs in which one of the H chains was introduced with an alteration were assayed for their binding activities to each activating FcγR and inhibitory FcγR according to the method described in Example 4. […] The activating FcγRs in FIGS. 26, 27, 28, and 29 are FcγRIa, FcγRIIa (R), FcγRIIa (H), and FcγRIIIa, respectively.
(§2) Analysis of interaction between objective antibody and the FcγR was carried out using Biacore T100 (GE Healthcare). HBS-EP+ (GE Healthcare) was used as the running buffer, and the measurement temperature was set to 25° C. Chips produced by immobilizing the antigen peptide by the amine coupling method to a Series S Sencor Chip CM5 (GE Healthcare), or alternatively, chips produced by allowing preliminarily biotinylated antigen peptides to interact with and immobilize onto a Series S Sensor Chip SA (certified) (GE Healthcare) were used. Antibodies of interest were captured onto an antigen peptide-immobilized chip, and allowed to interact to each FcγR diluted with running buffer. To regenerate and repeatedly use the chip, the antibodies captured on the chip were washed off by reacting 10 mM glycine-HCl, pH 1.5.

T1 sequence (P12314 16-292): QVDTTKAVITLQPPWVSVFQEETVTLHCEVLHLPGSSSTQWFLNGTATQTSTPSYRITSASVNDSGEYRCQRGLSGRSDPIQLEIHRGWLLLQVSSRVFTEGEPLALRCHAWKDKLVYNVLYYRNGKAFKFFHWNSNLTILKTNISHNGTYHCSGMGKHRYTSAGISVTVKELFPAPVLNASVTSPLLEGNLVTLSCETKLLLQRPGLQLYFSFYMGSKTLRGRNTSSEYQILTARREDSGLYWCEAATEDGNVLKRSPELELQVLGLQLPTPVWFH

Binder | He/Con_1a
B28 | 116 % of GpH7-A5/GpH7-B3/GpL16-k0
B29 | 103 % of GpH7-A5/GpH7-B3/GpL16-k0
B30 | 98.6 % of GpH7-A5/GpH7-B3/GpL16-k0
B31 | 101 % of GpH7-A5/GpH7-B3/GpL16-k0
B32 | 108 % of GpH7-A5/GpH7-B3/GpL16-k0
B33 | 99.3 % of GpH7-A5/GpH7-B3/GpL16-k0
B34 | 104 % of GpH7-A5/GpH7-B3/GpL16-k0
B35 | 106 % of GpH7-A5/GpH7-B3/GpL16-k0
B36 | 104 % of GpH7-A5/GpH7-B3/GpL16-k0
B37 | 102 % of GpH7-A5/GpH7-B3/GpL16-k0
B38 | 96.3 % of GpH7-A5/GpH7-B3/GpL16-k0
B39 | 102 % of GpH7-A5/GpH7-B3/GpL16-k0
B40 | 105 % of GpH7-A5/GpH7-B3/GpL16-k0
B41 | 103 % of GpH7-A5/GpH7-B3/GpL16-k0
B42 | 99.1 % of GpH7-A5/GpH7-B3/GpL16-k0
B43 | 86.1 % of GpH7-A5/GpH7-B3/GpL16-k0
B44 | 102 % of GpH7-A5/GpH7-B3/GpL16-k0

Each binder was assayed against T2, FcγRIIb (human, UniProt P31994 43-217) in the same assay as above.
T2 construct: extracellular domain; Soluble extracellular domain with C-terminal His tag, used as analyte; also called FcgRIIb; CD32B; not shown: His tag at the C terminus
T2 sequence (looked up): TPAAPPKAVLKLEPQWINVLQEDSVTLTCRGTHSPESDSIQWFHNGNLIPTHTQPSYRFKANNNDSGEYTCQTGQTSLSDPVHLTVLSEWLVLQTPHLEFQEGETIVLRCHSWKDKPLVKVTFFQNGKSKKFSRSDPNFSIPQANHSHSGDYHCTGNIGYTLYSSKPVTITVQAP
Procedure: as §1, §2

Binder | He/Con_2b
B28 | 48.4 % of GpH7-A5/GpH7-B3/GpL16-k0
B29 | 59.5 % of GpH7-A5/GpH7-B3/GpL16-k0
B30 | 63.1 % of GpH7-A5/GpH7-B3/GpL16-k0
B31 | 85.8 % of GpH7-A5/GpH7-B3/GpL16-k0
B32 | 89.8 % of GpH7-A5/GpH7-B3/GpL16-k0
B33 | 69.3 % of GpH7-A5/GpH7-B3/GpL16-k0
B34 | 92.1 % of GpH7-A5/GpH7-B3/GpL16-k0
B35 | 91.2 % of GpH7-A5/GpH7-B3/GpL16-k0
B36 | 89.5 % of GpH7-A5/GpH7-B3/GpL16-k0
B37 | 79.5 % of GpH7-A5/GpH7-B3/GpL16-k0
B38 | 60.8 % of GpH7-A5/GpH7-B3/GpL16-k0
B39 | 83.7 % of GpH7-A5/GpH7-B3/GpL16-k0
B40 | 90.3 % of GpH7-A5/GpH7-B3/GpL16-k0
B41 | 68.2 % of GpH7-A5/GpH7-B3/GpL16-k0
B42 | 63.7 % of GpH7-A5/GpH7-B3/GpL16-k0
B43 | 12.5 % of GpH7-A5/GpH7-B3/GpL16-k0
B44 | 92.1 % of GpH7-A5/GpH7-B3/GpL16-k0
